Experimental data reported in patent publication US20170305994A1 (Novo Nordisk, published 2017).
Positions count from the first letter of the chain named. Names may count otherwise. Like-named read-outs stand apart in the source and are kept apart here.

B1: 0087 (Fab from papain cleavage of mAb 0072) (Fab, V domains shown)
VH: EVKLVESGGGLVKPGGSLKLSCSASGFAFSNYDMSWVRQTPEKRLEWVAAFSSDGYTFYPDSLKGRFTISRDNARNTLYLQMSSLGSEDTALYCCARHADYANYPVMDYWGQGTSVTVSS
VL: DIVLAQSPASLLVSLGQRATISCRASKSVSTSGYSYMHWYQQKPGQPPKLLIYLASNLESGVPARFSGSGSGTDFTLNIHPVEEEDAATYYCQHSRELPLTFGAGTMLELKR
notes: murine IgG1 Fab by papain cleavage
B2: 0170 (humanized IgG1 Fab of 0072; HC T28A S49A Y91; LC Q3A T5A S60A M4) (Fab, V domains shown)
VH: EVQLVESGGGLVQPGGSLRLSCAASGFTFSNYDMSWVRQAAGKGLEWVSAFSSDGYTFYPGAVKGRFTISRENAKNSLYLQMNSLRAGDTAVYYCARHADYANYPVMDYWGQGTLVTVSS
VL: DIAMAQSPSSLSASVGDRVTITCRASKSVSTSGYSYMHWYQQKPGKAPKLLIYLASNLEAGVPSRFSGSGSGTDFTLTISSLQPEDFATYYCQHSRELPLTFGGGTKVEIK
B3: 0171 (humanized IgG1 Fab of 0072 without back mutations) (Fab, V domains shown)
VH: B2 VH with A41T, A62S
VL: B2 VL with A3Q, A5T, A60S
B4: 0173 (humanized IgG1 Fab of 0072; HC T28A S49A Y91S; LC Q3A T5A S60A M4L) (Fab, V domains shown)
VH: B2 VH with Y104S
VL: B2 VL with M4L
B5: 0073 (murine mAb purified from hybridoma 28F26A3) (antibody, V domains shown)
VH: EVKVVESGGGLVKPGGSLKLSCAASGFVFSSYDMSWVRQIPEKRLEWVAAISSGDYYTYYPDSVKGRFTISRDDARNTLYLQMSSLRSEDTALYYCARHRGGNYPQYAMDYWGQGTSVTVSS
VL: DILLTQSPASFAVSLGQRATISCRASKSVSTSGYNYIHWYQQKPGQPPKLLIYLTSNLESGVPARFSGSGSGTDFTLNIHPVEEEDAATYYCQHSRELPFTFGSGTKLEIKR
notes: murine IgG2a, kappa; also called 0085
B6: 0088 (Fab from papain cleavage of mAb 0073) (Fab, V domains shown)
VH: B5 VH
VL: B5 VL
notes: murine IgG2a Fab by papain cleavage

Key:
[1] = biological target: T1, human DR3 (full length, on cells) (human, UniProt Q93038 25-417); experiment: cell-based or functional assay
T1 sequence: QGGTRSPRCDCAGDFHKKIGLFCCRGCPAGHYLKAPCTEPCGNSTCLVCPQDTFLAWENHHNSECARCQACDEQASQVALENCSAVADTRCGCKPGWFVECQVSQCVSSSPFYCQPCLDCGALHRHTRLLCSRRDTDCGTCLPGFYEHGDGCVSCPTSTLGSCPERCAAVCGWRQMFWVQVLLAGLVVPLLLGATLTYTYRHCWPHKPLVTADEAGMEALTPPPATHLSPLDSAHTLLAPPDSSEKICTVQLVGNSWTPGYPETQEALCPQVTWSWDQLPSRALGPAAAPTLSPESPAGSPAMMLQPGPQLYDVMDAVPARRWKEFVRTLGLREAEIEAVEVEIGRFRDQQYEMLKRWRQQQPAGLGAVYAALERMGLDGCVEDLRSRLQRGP

[2] = biological target: T1, human DR3 (full length, on cells); experiment: flow cytometry on IL-12/IL-18/TL1A activated CD4+ T cells, 1 µg/ml
Method: (§1) Buffy Coats were obtained from normal healthy volunteers from Copenhagen University Hospital. CD4+ T cells were isolated through magnetic bead separation. Cells were activated with 2 ng/ml IL-12, 50 ng/ml IL-18 and 100 ng/ml TL1A (Flag-HIS-TEV-TL1A-produced at Novo Nordisk A/S) and cultured for 5 days. On day 5 cells were stained with 10, 5, 1, 0.5, 0.1 or 0.0001 μg/ml of the anti-DR3 mAb clones 0072, 0073, or 0077, or with Fab fragment clones 0087, 0088 and 0091. A secondary PE conjugated goat-anti-mouse (H+L) was used for detection.
The greater observed MFI values of IgG treated compared with Fab treated cells was expected since the secondary (detecting) antibody (anti-IgG heavy and light chain) bound to both Fab and Fc parts of the full-length IgG antibody clones, but only to Fab parts of Fab clones (Table 9).

[3] = biological target: T1, human DR3 (full length, on cells); experiment: as above; remark: listed apart in the source
Method: as §1
as §1, with “Material and Methods: Buffy” for “Buffy”, “Copenhagen” for “Copenhagen University”, “0088 or” for “0088 and”, “detection. Samples were in duplicate. Staining intensity was evaluated by FACS.” for “detection.”

[4] = biological target: T1, human DR3 (full length, on cells); experiment: cell-based or functional assay; remark: listed apart in the source
[5] = biological target: T1, human DR3 (full length, on cells); experiment: cell-based or functional assay; remark: listed apart in the source
[6] = biological target: T1, human DR3 (full length, on cells); experiment: cell-based or functional assay; remark: listed apart in the source
[7] = biological target: T1, human DR3 (full length, on cells); experiment: cell-based or functional assay; remark: listed apart in the source
[8] = biological target: T1, human DR3 (full length, on cells); experiment: flow cytometry on CD3/CD28-stimulated human CD4+ T cells
Method: Human CD4-positive T cells were purified from Buffy coats using CD4 Rosettesep (Stem cell technologies) and Histopaque (Sigma). T cells were stimulated with CD3/CD28 Dynabeads (Invitrogen) at a 1:1 ratio for 4 days in T75 flask at 2 mio CD4 T cells/ml in RPMI supplemented with 10% fcs. Beads were removed using a magnet, and cells were washed twice before titrating in antibodies on 500.000 cells/staining. Binding saturation was measured after incubation with goat-anti-mouse phycoerythrin (Jackson ImmunoResearch) and cells were subsequently analysed by flow cytometry on a BD LSRII. All antibodies reached saturation at 3 μg/ml.

Row | Binder | fold response, DR3 reporter, 40 ng/ml TL1A + 0.1 microg/ml [1] [fold] | fold response, DR3 reporter, 40 ng/ml TL1A + 1 microg/ml [1] [fold] | fold response, DR3 reporter, 40 ng/ml TL1A + 10 microg/ml [1] [fold] | fold response, DR3 reporter, 40 ng/ml TL1A + 100 microg/ml [1] [fold] | fold response, DR3 reporter, no TL1A, 0.1 microg/ml [1] [fold] | MFI [2] [MFI] | MFI [3] [MFI] | IC100 of inhibition of IFN-γ secretion, TL1A-costimulated RA synovial fluid cells [4] [µg/mL] | IFN-γ, TL1A-costimulated RA SF cells, Fab 0.003 µg/mL [5] [pg/mL] | IFN-γ, TL1A-costimulated RA SF cells, Fab 0.01 µg/mL [5] [pg/mL] | IFN-γ, TL1A-costimulated RA SF cells, Fab 0.03 µg/mL [5] [pg/mL] | IFN-γ, TL1A-costimulated RA SF cells, Fab 0.1 µg/mL [5] [pg/mL] | IFN-γ, TL1A-costimulated RA SF cells, Fab 0.3 µg/mL [5] [pg/mL] | IFN-γ, TL1A-costimulated RA SF cells, Fab 1 µg/mL [5] [pg/mL] | IFN-γ, TL1A-costimulated lymphocytes, Fab 0.003 µg/mL [6] [ng/mL] | IFN-γ, TL1A-costimulated lymphocytes, Fab 0.01 µg/mL [6] [ng/mL] | IFN-γ, TL1A-costimulated lymphocytes, Fab 0.03 µg/mL [6] [ng/mL] | IFN-γ, TL1A-costimulated lymphocytes, Fab 0.1 µg/mL [6] [ng/mL] | IFN-γ, TL1A-costimulated lymphocytes, Fab 0.3 µg/mL [6] [ng/mL] | IFN-γ, TL1A-costimulated lymphocytes, Fab 1.0 µg/mL [6] [ng/mL] | also measured
1 | B1 | 5.8 | 2.7 | 2.1 | 2.1 | 1 | 500 | 500 |  |  |  |  |  |  |  |  |  |  |  |  |  | fold response, DR3 reporter, no TL1A, 1 microg/ml [1]: 1 fold; fold response, DR3 reporter, no TL1A, 10 microg/ml [1]: 1 fold; fold response, DR3 reporter, no TL1A, 100 microg/ml [1]: 1 fold
2 | B2 |  |  |  |  |  |  |  | ~0.1 | 1790 | 1640 | 1360 | 1170 | 1300 | 1250 | 131 | 101 | 108 | 46 | 51 | 63 | 
3 | B3 |  |  |  |  |  |  |  | ~0.1 | 1870 | 1380 | 1220 | 1140 | 1160 | 1230 | 140 | 105 | 69 | 52 | 62 | 40 | 
4 | B4 |  |  |  |  |  |  |  | ~0.1 | 1550 | 1230 | 1130 | 1130 | 992 | 1060 | 160 | 163 | 95 | 69 | 62 | 48 | 
5 | B5 |  |  |  |  |  | 1300 | 1300 |  |  |  |  |  |  |  |  |  |  |  |  |  | fold response, DR3 reporter, 40 ng/ml TL1A + 0.1 microg/ml [7]: 24.2 fold; fold response, DR3 reporter, 40 ng/ml TL1A + 1 microg/ml [7]: 27.9 fold; fold response, DR3 reporter, 40 ng/ml TL1A + 10 microg/ml [7]: 25.5 fold; fold response, DR3 reporter, 40 ng/ml TL1A + 100 microg/ml [7]: 19 fold; fold response, DR3 reporter, no TL1A, 0.1 microg/ml [7]: 12.8 fold; fold response, DR3 reporter, no TL1A, 1 microg/ml [7]: 14.4 fold; fold response, DR3 reporter, no TL1A, 10 microg/ml [7]: 12.8 fold; fold response, DR3 reporter, no TL1A, 100 microg/ml [7]: 6.9 fold; Median Fluorescent Intensity [8]: 2840; Staining index (MFI Ab/MFI Isotype) [8]: 12.8; saturation concentration [8]: 3 µg/mL
6 | B6 | 15.2 | 6.3 | 2.9 | 2.8 | 1.1 | 500 | 500 |  |  |  |  |  |  |  |  |  |  |  |  |  | fold response, DR3 reporter, no TL1A, 1 microg/ml [1]: 1.1 fold; fold response, DR3 reporter, no TL1A, 10 microg/ml [1]: 1.1 fold; fold response, DR3 reporter, no TL1A, 100 microg/ml [1]: 1 fold
